Data on 18 sequences can be found in the DeepSol protein solubility set.

The nature of this series: soluble on expression in E. coli; label from the status in PepcDB or PDB records.
Take “MAHHHHHHMAQCLTWQVLDQRQTGECLDAVDLEALRAVIKRIDDDRDGALLHSSERTATQVNVLLDLYGHLVLFAKASQFSPFKTSTLFGIVHRVHEASIADRLSRFHSYDLLRELVVRHSVHRPPYSTMVFSVREVQDIDTYMMSTYYRHYKMYVYCFVPREVASLRTVMLNDTAEAPPAQLPPLSAAIREDAWKEKMQEKVRTLEEAEMEEQLIVSDAVSEAQKNAATLDNSRFMAGISAQLEAIRDAVSTKSSERLDLIEEKLTAIEAKVNEAQSSGNRSRQGSRGSSKRK”: the “soluble on expression in E. coli” value was “soluble”. As for “MAHHHHHHMASADSKAVLLSSQPGATAYSSTVAVKVQAGRMILQDGIVRPLLGSGFLFLLREGLLQDTVLTWVSSDGEEQCRVTLPPGRVKVSWVEKCRPSRVLLFDIDNGKQPLFFWMQSRSDELDEPVMHRIQHAIERNRQQAVAQHGRREIKMGTLQNILSDLWSEALAHDVNLVDILGSEKLLKALQEDPGFYTLRLKDYLPLGELDSGVPLDLKKLMNDRQVQWTAEILGTLLRHETTYSQLSASFLNGTMLWGANVTSFIVSIINIFLPQNEQQQMGESDN”, the “soluble on expression in E. coli” value is given as “not soluble”.

“MAHHHHHHMAVLVKNYEASLVDMAVQDFIKLGIDGVYTTMKTVVSFEYIFNFTSHMRNLHKYSTNFLELQINDHNKECVTNILQNLTMENIRKSSSASIKAGFEFLNALNDDIKKKHFSENVNYMVMVTITWDIHGNSGVSPNEPFSILCYIKCLPKHGSHVQIDIMCGERKTPNIKYSNVFDVRNKMLKLKSEDSHEVVLYNEKEEITEGLTCNFFCFFNDTLYTANDELVLKGTMREQIIHICEEEGVKLKKEAISIRDVGRFEFCFICSTTRNIIPVKKIILCSENKAEFEKDVHHPVLVKLQQKLREAVEKKKEKYEAYVSAALGV”: the “soluble on expression in E. coli” value is “not soluble”. Consider “MAHHHHHHMAVNARHDLLYECLGLVYELYGGLAEDLQELHDDPLHPHFHRRIARIKRDRERIATELDKRYAKLHPTVKTVYDAFLVRRYYHLADWIEHVERKRERLINDLSPDVMEKTMRMRGIAEQYLRHLRALEHALYEDPLMGLLGGDRGTNVLDQYTPGELAMLRQKAAYFRNMRRFGANQLDADMHTH”, for which the “soluble on expression in E. coli” value was “not soluble”. Turning to “MAHHHHHHMAWCDASFSVIYGNEELVVVNKPHDVPMDGEACPVTVEKWAWAYLAKGGCADNNAGGGVEKEDDTTRTAGRRRGEKKMVKFVHQLDYATSGVLCVAFSREMAARLAHCFEMRTTRKAYLAVLFGMMPTTSAMQKKLDTDTGVDFLRGSPYASHVRRVSMDDVPGVCFIRKCVIEASGHEEGENADCCATLLEVNLPVGYDTTDHEGFRMTVNGRDARGSVTYLSVLQRGYMTHPTSGCPVPVTKVALFPRTGRRHQLRVHCHAIGFPILGDVTYARIPTPRVAPKVTGAEEVATVGATESINAPNEIGAIEAWQRMMLHAWRLSFPVSVEPLRSGSERYMQKKKRRRETLGLAVAGGDDTTVWTHFETEDPFQLVRPE”, the “soluble on expression in E. coli” value is recorded as “not soluble”.

Turning to “MAHHHHHHMCPYEERQELRISMGFAGRRPNLTFTSDTMDAHAYLVRHWALNAIAESAGKGMSVQRDSIPFLARSQHSIVNENKMTFLRPDGKIKYNIPKHWLLESDSSVNFLNASPGPVLPSEADNLLVCCTIYEERPEKCMRVYRVRTREDYIAVNQEILAAKCQLLEMNEVNGRNSMRISSRSTRASQQKERLGQTQRVLRTSMERKSINTAADSAGLPFSAFALSGLVSNAAFTIHKTDTSRQINIIHSFLRTEPTCKATIARSIVGNNVTLGPDVRITNSIILDNAEIGAGAIISNSVIGSSAMVNSGVRVVSCTVGPQCLVESNETDRVIRA”, the “soluble on expression in E. coli” value is listed as “not soluble”.

Consider “MAHHHHHHMDCNTGMQLGQQFSKDVTMMHGGVPMSGAMSEQDALMVSAQVGGASPMMAAQWAQNFQQQQAMQAMRQQHEMEQAFQNSQQQQHAAVAQSGQMLGMAGPQQQQFMVQQQQQASMMNAAMMSQGMMTANMGFGMMMPRTQYQPLPNLSVLQPNQQQQQQQQLVNLAPAVQDSAWADQLSQQQWSTDYSQVQTFSAPGMEDKTVEERIKDSEFYKFMDQVKNKEVLIDEEKGELVQGPGPEVGVPEDAEYLRHWAEMEGLNMPEGVFQPPPPASAMMTPENGDPDTYIKEMDMAENDVEDWAQEYAEMQERLQKVTNNTDYPFEPNNPYMFHDFPFDEGMEMLQLGNLAEAALAFEAVCHKDSSNEKAWQILGTTQAENEKDGLAIIALNNARKLNIRNLEVHAALSVSHTNERNADAAMDSLKAWLVNHPEYEQLASVSIPPDAELDVQETFFFADPSRMREARTLYEAAIEMNPSDSQLFTNLGVLHNVAHEFDEAAECFRKAVALHPDDPKMWNKLGATLANGGHPDQALEAYNRALDINPGYVRAMYNMAVAYSNMSQYNMAARQIVKAIASQQGGTKPSGEGSIMATRNMWDLLRMTLNLMDRDDLVQLTYNEQLEPFVKEFGLEGHV”, for which the “soluble on expression in E. coli” value is “not soluble”. The same measure for “MAHHHHHHMDFQNRVGHKTGSGMPLSREDINQERRERLKQLALENIDITKDPYILKNNVGMFECKLCLTLHNNESSYLCHTQGKKHQMNLAQRLLKEKNEMTTNRLNKPVSEPRKIVKIGKPRYDVTRVRNKKNQLGILFELSFPNIKENTKPKFRFMSSFEQKIEAPDKKYQYLLFAAEPYETIAFKIPNIDIDENEGFYYKWFDKKKIFVMQIHFQNAFPPGHVNLREHSNFLSSTNRW”: “not soluble”; for “MAHHHHHHMDLFNCQYCSISPFDYILDYLYGDTSSKKEEKKKKSNITYDDSSSNNVSQVVSKIDEEIEKRTTNEILLLCRAWENYVHPRAKEYWKDSQQLQNILCKIANGITKNDDPILGDDYACVFWYGDKNKNDNCPIISVKKGNDNIETITYVNRVLIFLYADEASFQELQKKPKKAFTMACGNTNCINLTHISLDD”: “not soluble”. The same measure for “MAHHHHHHMDRLAGSFLSNGDVANASSLYNSLEKLNPTRYSRMARICRVLLNPQGVPLPHRHLDICEALLDPLVPPEVLLRDSAENVQKSFQRLAVCAHPDKNPSPSANEAFLRLTMMKDKALELLRNGVGRKCDGATEAPPGKAADSNGGKGKPKMQGSGPAVPTVAHRRRPLRPGVPLPAAATAVTSDINTAAAVSSKISQLRRTKITLNALKRKDIADDFEIFSATQRTTAVQSEVSHSDVGEDHLATTVPVMSTKERARCANRRRSQSSAPQEKTTTVPRASSPNSNPLLSSSLYYAMPVSPHKPLSPSPQTLEDPTGSVKSSGAGDRDASALYSPFIPTAAIPADSDAIRRQIDEACLRLREMRLQHTTVRLDLDLSFEAYERSKQPQ”: “not soluble”; for “MAHHHHHHMDSEPFAFDGEGSRARQSEYVDMTLVHLGMKLRDMGIAFEDMELATVPTQFAEQLLSYIEAFEERESAIRAATTEHRAQLEQEQKRLESLQEATEKARGEVAILSERISSALSAFRGEEKLEAQHRRERQRDVQDIVRQIEKKELELRRETMERDRLSKMLKKVKK”: “soluble”. Turning to “MAHHHHHHMDTPEREVSPPPAEEDENKKRVIIILEGAHLQLIETKRYIYELANIMKHKHLLRDQKNEEEMRNFRPDILHQCLIHLLESALNKYGLLQVYIKTHDNQLFYVSSHLKIPKTYDQFESLMVTFLRKYKIKANEKNLCLLKFLKNDYSAILPINGKKIGLSVKGKKVHFSEYVQNLQNEDVPVTFFIGAVAYSNPITKLENLDDNICISEFSLSAATCCSTICSEFENLLGLF”, the “soluble on expression in E. coli” value is given as “soluble”. Regarding “MAHHHHHHMDVEHFIASLPPRTSVCGLHSVLSHASVHSLDSLGSTETPMLLTAQNFSFMSSGGDGDDNIGNAASTDSRATGAHGSGSNGSSHSGHHPTSPSPCGANASPFISKRLKYVIRSVALDHEECGGDSLSSRIASSYIGSSMPATNSQTRRRSERHVTFALEPEVLDARPRFSAYSRTVELLEQICLDKQSPWNALSLLQSALEERRGQLAQLRGQWDGALTGEAPTLTSSVTPKPCTITTSSGGGAVCHSRDKTTVPSPKSFPSATTSTLMTKGKSSRYSKVKPKACTTCSAM”, the “soluble on expression in E. coli” value was “not soluble”.

On to “MAHHHHHHMEAETSKISEVPLPIPIGINGFGAVGRAVLFASMTEPQVTVVAVNDFSVSINYVLYVLQNESPLSAEDKASLTVVGEYIFYRGTERIRVTQKHDLVDIAWRDAGVSYVVECTGFTSTRDRCWGHLTSGARGVLVAGQSGDAPAIVAGVNDSDLSKIQPIICSGAPLAVALAPFIRILHESFGVEDCSYTAIHAIQPVEPNAARSANSQDWRQTRVTLDSITPYAHTGMTTFCKLMPTLSSRITGSAFQVPVTKGCAIDMLLRFKQPVAKESVDEALIEASKDRLKDVLFVSKRDFISRDLLPDGKLCYDPSASQCVREGELYKFTLWFDLERSFAKRLISLIPVMNDADAKKNNV”, for which the “soluble on expression in E. coli” value was “soluble”. “MAHHHHHHMECVELTPSESGTINRRGAIPANLAGNSYYARRYSTQGGTRRGTLDATEPHVQFRSGDLVLQLCLSAVPRELSHKRIVDVTGIQTSFHNVSERQSKALATVEEAMQTMHLHDGHEVPALQRGDVNLVRLQPRCVYISPPPSHSFAAGEAVAVDLRHLSSALRPLSNPYVLLAQTRRLSFRSEMEAVQTAQVMASFLTELRGGGAVSEGCGSSVGVFGSAAVLRPVVRDGHLVAMTLCPPRDTARGCRRR”: the “soluble on expression in E. coli” value is on record as “not soluble”.

For the sequence “MAHHHHHHMEDVGGKANCQIEPERKEAVIDTSNWPLLLKNYDKLNVRSSHFTPLPMGNSPYSRNLEEYLKYGIINLDKPSNPSSHEVVSWIRKILRCEKTGHSGTLDPKVTGVLLVCLNRATRLVKSQQESGKEYVCVCKFHSKPKSLEEVKLVLNNFHGAIFQRPPLICAVKRQLRVRTIYDSKLLDFDDANNVCVFWVKCQAGTYIRTLCEHIGLLLGVGAHMQELRRVKSGNMTEYDNMCTLHDILDAQHVYDTTGDESYLRKIITPLEKLLINFPRIVIKDSAVNAICYGAKLTIPGVLRFDNNIDVNSEVVLMTTKGEAVALAIAQMTSSVIATVDHGVVSLTKRVIMDRDTYDVKWGYGTRSMEKKKLILAGLLDKYGKPNEKTPLSWIKSEGYVPKLVGDTAIYTLNTDDGNNNEVPENGKNVVGENNNPVGGSSAFNLSEGENKKKKDGEGAEENDNNAGEQSDSGVVKKKRKKN”, the “soluble on expression in E. coli” value is recorded as “not soluble”. In the case of “MAHHHHHHMEENNQVEKNKGTNQLCFVKMLVNNLVAGSVIGKNGSIITSIENKTGCSLKLSPTNSYFPNTQERVLVLCGKQEQINNALLIILDKIRQITVQSFQDKQNMNTVPKYTCRIVIPKSAASAIIGKGGQQIKQLQDSTGAKIQISSREDGLNERIISIIGPFESISDTAIKVTNSIQNDPNLKDLLNVIYNKDTNMNGRSSLSQNFVNQVPLNGYVVPQQYGVFQHEQYMDVNMMNSLMRHSRDLFNLPCEISIQIPDEFIGSVIGKNGSRLTNIMNSTGAQIRISRKGELIPGTADRKVRIMGTVAAVHGAHVLLLQRLESVYMQLRTMQVKCDA”, the “soluble on expression in E. coli” value is listed as “soluble”. With “MAHHHHHHMEGQERRSVVEMTNTKTILLDPKDGWAPKAQFDFDASLWSIPPTHRIVHTFQDTKHKTYATQKDVYNLIAKDLVPHVFNGFNSCILTYGQTGSGKTYTMMGLYDPNASCGGDGEEGIIPRVSNDIFIILKERMEEEAKTRPPRDRTKFRVEVSFVEIYMERVRDLLDPALRHTRSNEHLQDARIRQDPYSGPFVEGVTKYEVENWTQCCTLLERGSQHRTTCATAVHNQSSRSHAIFQLTVVQEQVVPGNNKYALPAFKTQAGRINLVDLAGSERGGFQDYVKESAAINTSLLALRRVIDNLTERQNMLMEMAEAEITGKHYQERPLPQVPFRDSVLTWLLSDSIGGNARTTMVATLSPLVKNYADTLATLQWSSRARNLVTLVKMNDQALVHNGMASHAGALDNAVRIQRQNLDSLRQTLRSKQEAAQQLERQTKEHKKSLTKVRGRERAILRDRAALIIQRAFHRFLFYKKYEAYELHHAKLRGGNKRGTGDAADFQKIRKEAEAREQAAKEALKAEEALTDEKAAAVARYESNYEARALRRREAEERQARIVEVINGNELLRQYVEKRRQEVEALRSVADNENREREMAVKKLADMIKAIADHKTDQHKRKVEEDQKMLEMLRKKRDEVRSRRYEVLRQLQTLRERHKKVVKK”, the “soluble on expression in E. coli” value is given as “not soluble”.
